Source: the supplement of paper PMC7125110
± gives the standard error. For some of these results: Variants at the floor of the assay were thinned out.

B1: glmS ribozyme (parent)
chain: AUAAAAGCGCCAGAACUACAGAAAUGUAGUUGACGAGGAGGAGGUUUAUCGAAUUUUCGGCGGAUGCCUCCAAA

Experiments:
Conditions in all cases: with glucosamine-6-phosphate
glucosamine-6-phosphate [1] = variants of: B1; test: kcat; higher = faster cleavage; RNA array
Summary of the method: (§1)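 Glucosamine-6-phosphate, from 40 μM to 10 mM in HEPES/KCl/Mg(OAc)2 buffer, was flowed over sequenced MiSeq chips carrying barcoded ribozyme variants transcribed in situ by E. coli RNA polymerase. A hybridised Cy3 probe tracked the variants at 37 °C as tiles were imaged over ~14 h. kobs, kcat and KM were obtained by fitting normalised per-tile medians to exponential decays and then applying weighted Michaelis–Menten fits across concentrations.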

glucosamine-6-phosphate [2] = variants of: B1; test: KM; higher = weaker cofactor use; RNA array
Summary of the method: as §1

glucosamine-6-phosphate [3] = variants of: B1; test: self-cleavage kobs at 640 uM GlcN6P; higher = faster cleavage; RNA array
Summary of the method: as §1

glucosamine-6-phosphate [4] = variants of: B1; test: self-cleavage kobs at 160 uM GlcN6P; higher = faster cleavage; RNA array
Summary of the method: as §1

glucosamine-6-phosphate [5] = variants of: B1; test: self-cleavage kobs at 2500 uM GlcN6P; higher = faster cleavage; RNA array
Summary of the method: as §1

glucosamine-6-phosphate [6] = variants of: B1; test: self-cleavage kobs at 10000 uM GlcN6P; higher = faster cleavage; RNA array
Summary of the method: as §1

glucosamine-6-phosphate [7] = variants of: B1; test: self-cleavage kobs at 40 uM GlcN6P; higher = faster cleavage; RNA array
Summary of the method: as §1

Variant	kcat (glucosamine-6-phosphate [1]) [s⁻¹]	KM (glucosamine-6-phosphate [2]) [µM]	self-cleavage kobs at 640 uM GlcN6P (glucosamine-6-phosphate [3]) [s⁻¹]	self-cleavage kobs at 160 uM GlcN6P (glucosamine-6-phosphate [4]) [s⁻¹]	self-cleavage kobs at 2500 uM GlcN6P (glucosamine-6-phosphate [5]) [s⁻¹]	self-cleavage kobs at 10000 uM GlcN6P (glucosamine-6-phosphate [6]) [s⁻¹]	self-cleavage kobs at 40 uM GlcN6P (glucosamine-6-phosphate [7]) [s⁻¹]
AUAAAAGCGCCAGCACUACAGAAAUGUAGUUGACGAGGAGGAGGUUUGUCGAAUUUUCGGCGGAUGCCUCCAAA [A14C A48G]	< 1e-05	1040 ± 200	< 1e-05				
AUAAAAGCGCCAGCACUACAGAAAUGUAGUUGACGAGGAGGAGGUUUAUCGAAUUUUCGGCGGAUGGCUCCAAA [A14C C67G]	0.000353 ± 6.7e-05	2730 ± 860	6.56e-05 ± 5.7e-06	3.67e-05 ± 7.3e-06	0.000156 ± 1.5e-05	0.000293 ± 2.8e-05	
AUAAAAGCGCCAGCACUACAGAAAUGUAGUUGACGAGGAGGAGGUUUAUCGAAUUUUCGGCGGAUGUCUCCAAA [A14C C67U]	0.00159 ± 0.00047	1720 ± 820	0.000511 ± 6e-05	0.000119 ± 1.7e-05	0.000783 ± 8.1e-05	0.00184 ± 0.00023	5.24e-05 ± 9e-06
AUAAAAGCGCCAGCACUACAGAAAUGUAGUUGACGAGGAGGAGGUUUAUCGAAUUUUCGGCGGAUGACUCCAAA [A14C C67A]	0.00149 ± 0.00032	1850 ± 600	0.000337 ± 4.4e-05	0.000145 ± 2.4e-05	0.00079 ± 0.00013	0.00146 ± 0.00024	3.89e-05 ± 9.3e-06
AUAAAAGCGCCAGCACUACAGAAAUGUAGUUGACGAGGAGGAGGUUUAUCGAAUUUUCGGCGGAUACCUCCAAA [A14C G66A]	0.00362 ± 0.0004	1940 ± 370	0.000879 ± 0.00024		0.00158 ± 0.00047	0.00316 ± 0.00037	7.72e-05 ± 1.3e-05
AUAAAAGCGCCAGCACUACAGAAAUGUAGUUGACGAGGAGGUGGUUUAUCGAAUUUUCGGCGGAUGCCUCCAAA [A14C A42U]	3.4e-05 ± 1.6e-05					2.17e-05 ± 5.9e-06	
AUAAAAGCGCCAGCACUACAGAAAUGUAAUUGACGAGGAGGAGGUUUAUCGAAUUUUCGGCGGAUGCCUCCAAA [A14C G29A]	0.000725 ± 5.3e-05	2290 ± 270	0.000166 ± 2.4e-05	4.05e-05 ± 1.5e-05	0.000389 ± 9.3e-05	0.00058 ± 9.2e-05	
